Results published in patent publication US20230227580A1, “ANTI-VWF ANTIBODIES AND USES THEREOF” (MONASH UNIVERSITY, priority 2020, published 2023).
Where no end group is shown, it is not given here.

How the values were obtained:
VWF = VWF (Homo sapiens, UniProt P04275); assay: VWF binding in the presence or absence of ristocetin (FIG. 7)
[1] = system: thrombus formation / platelet deposition; assay: Thrombus formation on collagen type I in stenosis channels (SRG versus constant shear); type: cell-based, human; conditions: 15 minutes of blood flow; for Platelet deposition: 0.1 µM OS-1
Description: (§1) In-house designed PDMS microfluidic chips (FIG. 1A) contained channels of 52 µm height with a footprint of 300 µm x 46 mm (used in FIG. 1) or 300 µm x 17 mm. Selected channels incorporated a semi-circular stenotic section of various lengths (600 µm, 1000 µm or 2000 µm diameter), creating 80% lumen reduction. Chips were manufactured as previously reported (Westein et al. Proceedings of the National Academy of Sciences of the United States of America. 2013 Jan 22;110(4):1357-62). The produced PDMS chips were sealed with cover slips by hydrophobic interaction and coated with collagen by perfusion of collagen solution followed by static incubation at RT for at least 1 hr. Channels were rinsed with PBS and blocked with 2% BSA. Wall shear rates of the input flow for these microchannels were approximated from volumetric flow rates by using the equation, γ = 6Q/wh2. Herein, γ is the wall shear rate (s^-1), Q the volumetric flow rate (mls^-1), w the channel with (cm) and h the channel height (cm).
(§2) Citrated whole blood was incubated with DiOC6 (0.5 µg ml^-1) (Sigma-Aldrich Co, St. Louis, MO, USA) and drawn through microfluidic channels by a programmable syringe pump (Legato 130, KD Scientific, USA). Time-lapse z-stack images of platelet deposition were captured in multiple track, resonant scanning mode, using a Nikon A1R confocal microscope system. Platelet deposition was recorded over time (2 frames per minute) for up to 20 minutes and quantified in ImageJ using a Z-projection of the acquired signal.

platelet GPIbα = biological target: T1, platelet GPIbα (Homo sapiens, UniProt P07359); assay: Platelet adhesion to collagen III under constant shear, whole blood perfusion with OS-1; type: cell-based; conditions: for Numbers of adherent platelets: 20 µg ml^-1 abciximab; for Platelet adhesion (relative, fluorescence intensity): collagen III, 1,500 s^-1
T1 construct: endogenous in cells; host or cells: platelets in citrated whole blood
Description: as §1, §2
For experiments measuring rolling velocities, anti αllbβ3 antibody (abciximab; 20 µg ml^-1)-treated whole blood containing 0.5 µg ml^-1 DiOC6 was drawn over a collagen type III-coated surface. Where indicated, blood was incubated with 30 µM aspirin (Sigma Aldrich, USA) and 300 µM 2-MeSAMP (Sigma-Aldrich Co, St. Louis, MO, USA) prior to blood perfusion. 10 second video clips of rolling platelets were recorded in the green fluorescent channel using an Olympus IX81 microscope system. Platelet rolling velocities were calculated using Diatrack v3.04 large scale particle tracking software (Vallotton et al. Microsc Microanal. 2013 Apr;19(2):451-60).

| Substance | Mechanism of VWF binding (dependence on conformation) (VWF) | Platelet deposition ([1]; constant shear) | Platelet deposition ([1]; shear gradient conditions) | Thrombus formation ([1]; 2000 s^-1 constant shear) | Thrombus formation ([1]; SRGs (187-1,500 s^-1)) | Thrombus formation ([1]; SRGs (300-2,000 s^-1)) | Numbers of adherent platelets (platelet GPIbα; 3 µM OS-1, constant shear 2,000 s^-1) [platelets per field] | Numbers of adherent platelets (platelet GPIbα; 3 µM OS-1, constant shear above 500 s^-1) [platelets per field] | Platelet adhesion (relative, fluorescence intensity) (platelet GPIbα; 3 µM OS-1) | Platelet adhesion (relative, fluorescence intensity) (platelet GPIbα; increasing concentrations of OS-1) |
| --- | --- | --- | --- | --- | --- | --- | --- | --- | --- | --- |
| Cablivi: commercially available antibody (Cablivi®, Sanofi) binding VWF [reference compound] | conformation independent |  |  |  |  |  |  |  |  |  |
| OS-1: cyclic peptide, allosteric inhibitor of GPlbα/VWF interactions with sequence CTERMALHNLC, obtained from Auspep (also: cyclic peptide, ring not described) [reference compound] |  | inhibited | inhibited | reduced thrombus formation | inhibited thrombus formation | inhibited thrombus formation | 11±4 | 53±4 | completely abolished | concentration dependently reduced |
